The text below walks through data of patent US20250270305A1 (OSAKA UNIVERSITY, published 2025).

Assay [1] has as its target T1, recombinant human Netrin-4 (human, UniProt Q9HB63 19-628, limits assumed).
T1 sequence: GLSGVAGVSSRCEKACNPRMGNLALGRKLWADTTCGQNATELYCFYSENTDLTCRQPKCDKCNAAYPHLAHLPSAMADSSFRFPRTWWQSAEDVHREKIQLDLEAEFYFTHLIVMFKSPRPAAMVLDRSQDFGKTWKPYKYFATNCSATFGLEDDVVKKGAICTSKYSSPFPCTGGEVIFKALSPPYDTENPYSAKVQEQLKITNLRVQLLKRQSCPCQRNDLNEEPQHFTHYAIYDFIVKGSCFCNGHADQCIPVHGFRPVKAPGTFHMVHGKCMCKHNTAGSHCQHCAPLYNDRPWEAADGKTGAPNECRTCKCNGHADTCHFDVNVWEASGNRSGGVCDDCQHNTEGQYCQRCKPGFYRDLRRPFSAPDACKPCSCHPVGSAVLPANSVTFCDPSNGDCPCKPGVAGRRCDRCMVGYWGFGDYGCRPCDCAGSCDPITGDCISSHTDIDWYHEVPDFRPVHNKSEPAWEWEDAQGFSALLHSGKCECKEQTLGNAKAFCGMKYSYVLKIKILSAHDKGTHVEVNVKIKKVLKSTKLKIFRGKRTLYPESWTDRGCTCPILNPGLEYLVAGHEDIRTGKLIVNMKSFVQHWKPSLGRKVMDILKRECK
The assay is described as follows: ELISA screening of hybridoma culture supernatant. An excerpt:
(§1) Four mice were immunized with the epitope peptide. After four immunizations, the blood was collected to determine the antibody titers using ELISA against recombinant human Netrin-4 and TGGEVIFKALS peptide. Mouse lymphocytes with increased antibody titers were fused with myeloma cells, and cultured in HAT medium to produce hybridomas. About ten days after cell fusion, antibody production in the culture supernatant was screened by ELISA (against recombinant human Netrin-4 and TGGEVIFKALS peptide), and 95 positive wells were selected. Primary cloning was then performed by limiting dilution, followed by screening by ELISA (against recombinant human Netrin-4 and TGGEVIFKALS peptide). Secondary cloning was then performed by limiting dilution, followed by screening by ELISA (against recombinant human Netrin-4 and TGGEVIFKALS peptide). A single clone was selected. The selected clone was expanded, and cultured at a high density in a serum-free medium. The culture medium was collected and purified on a protein A column to produce IgG. Purity was measured using AKTA-FPLC, and the titer was measured by ELISA. IgG was further purified with low endotoxin levels and used for the subsequent experiments.
In general terms: In an ELISA, binding on a coated surface is turned into a signal by an enzyme label.

In assay [2] the target is T2, TGGEVIFKALS peptide (amino acid residues 192 to 202 of human Netrin-4) (human).
T2 construct: The immunogen was C-Ahx-TGGEVIFKALS linked to bovine thyroglobulin; The ELISA antigen is named only as the TGGEVIFKALS peptide
T2 peptide: TGGEVIFKALS
In words: ELISA screening of hybridoma culture supernatant.
Source text: as §1

B1: anti-Netrin-4 monoclonal antibody produced by the hybridoma cell line Human Netrin-4 (192-202)-6A1 (Accession No. NITE BP-03603) (antibody, V domains shown)
VH: QVQLHQSGPELVRPGASVTLSCKASGYTFTDYEMHWVKQTPVHGLEWIGAIDPETGDTVYNQKFKGKATLTADKSSSTAYMELSSLTSEDSAVYYCVDGFSDHYWGQGTTLTVSS
VL: VLVLTQTPLSLPVRLGDRASISCRSSQSLVHSSGNTFLHWYLQKPGQSPKLLIYKVSSRFSGVPDRFSGSGSGTDFTLKISRMEAEDLGVYFCSQSTHIPYTFGGGTKLEIKR
notes: In the ELISA screens the antibody was hybridoma culture supernatant
B1: the binding result in assay [1] and in assay [2] was “binds” throughout.
